The assay deals with anti-oxytocin antibodies. Put plainly: Proteomic analysis: 2D gel and OT immunodetection (OT IgG) of bacterial proteomes. Format: binding. The following applies: 2D-immunoblotting, spots identified by mass spectrometry. As to the method: In this study, 14 bacteria-extracted proteomes were analyzed: (i) from 5 Bifidobacterium species grown in anaerobe conditions, (ii) from 5 Lactobacillus species grown in anaerobe culture conditions and (iii) from 4 aerotolerant Lactobacillus species grown in aerobe conditions. Each proteome analysis was performed in triplicate and was further separated in 3 fractions i.e. soluble (S), membrane (M), and residual (R) resulting in 9 samples/proteome). Each fraction was initially screened by western blot (WB) for the presence OT-like reactivity to validate it for further 2D-SDS-PAGE analysis. […] Finally, all fractions have been analyzed using 2D gel technique and OT immunodetection. 2D gel electrophoresis allowed to improve visibility of the less abundant proteins in a complex sample. Thereby, all samples were analyzed at least once with this method to scan optimally each proteome in the search for OT mimicry. […] The specificity for OT-like staining was controlled by pre-adsorption of OT-IgG with OT peptide.
All protein spots in silver nitrate staining gels corresponding to OT-like spots in the membrane were excised and analyzed by mass spectrometry
(In general: Immunoblotting shows a protein as a band on a membrane.)

B1: Phosphoketolase (protein, listed as Bifidobacterium dentium)
chain: MTSPVIGTPWKKLNAPVSEEAIEGVDKYWRAANYLSIGQIYLRSNPLMKEPFTREDVKHRLVGHWGTTPGLNFLIGHINRLIADHQQNTVIIMGPGHGGPAGTAQSYLDGTYTEYFPNITKDEAGLQKFFRQFSYPGGIPSHYAPETPGSIHEGGELGYALSHAYGAVMNNPSLFVPAIVGDGEAETGPLATGWQSNKLVNPRTDGIVLPILHLNGYKIANPTILSRISDEELHEFFHGMGYEPYEFVAGFDNEDHLSIHRRFAELFETVFDEICDIKAAAQTDDMTRPFYPMIIFRTPKGWTCPKFIDGKKTEGSWRSHQVPLASARDTEAHFEVLKNWLESYKPEELFDANGAVKPEVTAFMPTGELRIGENPNANGGRIREELNLPALEDYEVKEVAEYGHGWGQLEATRRLGVYTRDIIKNNPDSFRIFGPDETASNRLQAAYDVTNKQWDAGYLSAQVDEHMAVTGQVTEQLSEHQMEGFLEAYLLTGRHGIWSSYESFVHVIDSMLNQHAKWLEATVREIPWRKPISSMNLLVSSHVWRQDHNGFSHQDPGVTSVLLNKCFNNDHVIGIYFPVDSNMLLAVAEKCYKSTDMINAIIAGKQPAATWLTLDEARAELEKGAAEWEWASTAKSNDEAQIVLASAGDVPAQEIMAAADKLDAMGIKFKVVNVVDLVKLQSTKENDEAISDADFADLFTEDKPVLFAYHSYARDVRGLIYDRPNHDNFNVHGYEEQGSTTTPYDMVRVNNIDRYELVAEALRMIDADKYADKIDELEAFRKEAFQFAVDNGYDHPDYTDWVYSGVNTNKQGAVSATAATAGDNE
modifications: phosphoketolase
notes: protein expressed by Bifidobacterium dentium
Turning to B1, the “immune cross-reaction with anti-oxytocin antibodies” value (shortened to “immune cross-reaction”) is given as “immune cross-react with anti-oxytocin antibodies”.

B2: Glutamine-fructose-6-phosphate aminotransferase (protein, listed as Lactobacillus plantarum)
chain: MCGIVGVTGKDSAVSILLNGLEKLEYRGYDSAGIYVNDQDGHDYLVKEKGRIDDLRKEVGEAVHGSTGIGHTRWATHGEPSVANAHPQVSADGRFYLVHNGVIENFEDLKQTYLSDVTFKSQTDTEVIVQLVDRFVTKEGLSTLAAFRKTLGLLGHSSYGFLLMDKEDPDTLYVAKNKSPLLIGVGEGFNVVCSDSLAMLDQTKDFLELHDGEIVVVKPDEIKITNQAGEPVERKPFHVDIDAAQADKGTYPFYMLKEIDEQPNVMRKLSQVYLNDAGDPIINDDLLTALKAADRLYIVAAGTSYHAGLVGAKLFESLANVPTEVHVSSEFAYNQPLLSAHPFFIFLTQSGETADSREVLLNVNDQHFPSLTITNVPNSTLSREATYTLLLHAGPEIAVASTKAYTAQIALQAILAKALGVAVDQPAATAFDVKQQLALVANGMQSLVDEKATFEKIAKSALLNTPNAFYIGRGLDYAVSLETALKLKEISYVQAEGFASGELKHGTIALIEKDTPVIGIITQKNTAGLTRSNLQEVAARGAKTVTIVTDSLAKDGDTVILPTVDERLTALLSVVPGQLLAYYTSLNKGLDVDKPRNLAKSVTVE
modifications: Glutamine-fructose-6-phosphate aminotransferase
notes: protein expressed by Lactobacillus plantarum
Turning to B2, the “immune cross-reaction” value is “immune cross-react with anti-oxytocin antibodies”.

B3: GMP synthase (protein, listed as Lactobacillus plantarum)
chain: MAKTDTASFDSILVLDFGSQYNQLITRRIRDFGVYSELLPNTITAEEIKARHPKGIIFSGGPNSVYDDGAFRVDPEIFKLGLPILGICYGMQLMTYTLAGGKVESADNREYGKANIDVTSDSATLFKDTPAEQSVWMSHGDLVTQAPDGFDVVATSKNCPIAAIQDVDRKLYGIQFHAEVRNTDYGNDILRHFAFDVCQAEANWSMDDFIDMQIEKIRAEVGDKKVLLGLSGGVDSSVVGVLLHKAIGTQLTSIFVDHGLLRKGEADQVMASLEGKFGLNIIKVDAKDRFLSKLAGVSDPERKRKIIGNEFIQVFDEEATKLNGMEFLAQGTLYTDVIESGTSTAQTIKSHHNVGGLPEDMQFKLIEPLRTLFKDEARELGEKLGMPSDLVWRQPFPGPGLGIRVIGEITEDKLEIVRDSDFILRDEIKKAGLDREIWQYFTVLPGIKSVGVMGDGRTYDYTVGIRAVTSIDGMTADFARIPWDVLQKISVRIVNEVDHVNRIVYDVTSKPPSTIEWE
modifications: GMP synthase
notes: as for B2
Take B3: the “immune cross-reaction” value is given as “immune cross-react with anti-oxytocin antibodies”.

B4: Phosphoglycerate kinase (protein, listed as Bifidobacterium dentium)
chain: MKTLKDLGDLKGKRVLVRADFNVPLDGTTITDDGRIKAALPTIKALREEGAKVILMAHLGRPKGKVVPELSLAPVATRLGELLGVEVPLASDTYGEDAQAKVAAMNDGDVVLLQNVRFNPEETSKDPEERAAYAKKIAALGEAFVSDGFGVVHRAQGSNYDVAADLPAAAGLLVEKEVKALSRATVDPERPLTVVLGGSKVSDKLGVIENLLDKADRLVIGGGMVYTFLKAKGLEVGTSLLEEDQVETVKGYIERAEKNGVELVLPTDIVVNPVFPKSDEDIAPEVVAADAIPADKMGLDIGPDSQKLFHDKIVDSKTVVWNGPMGVFEVPAFAAGTEAVAQGLVDATAAGAFTIVGGGDSASAVRNLGFPEDGFSHISTGGGASLEFLEGKELPGLKVLD
modifications: Phosphoglycerate kinase
notes: as for B1
For the molecule B4, the “immune cross-reaction” value is recorded as “immune cross-react with anti-oxytocin antibodies”.

B5: Triosephosphate isomerase (protein, listed as Lactobacillus camelliae)
chain: MAGNWKMNKNPEETQAFLDGVKGKLPESSKVQTVIAAPAIDLTTLVAGAKGTPLQTAAENCYFEDAGAFTGETSPKALKDMGLDYVVIGHSERRGYFHETDQDINKKAKAILKNGLLPIICCGESLDQREAGQTNDWVASQVEAALAGISAADVKNSVIAYEPIWAIGTGKTASADQAQEVVAHIRSIVAKLYDAETADAVRILYGGSVKPANVKELMAKPDIDGGLVGGASMDPESFVALANYQD
modifications: Triosephosphate isomerase
notes: protein expressed by Lactobacillus camelliae
B5: the “immune cross-reaction” value was “immune cross-react with anti-oxytocin antibodies”.

B6: Prolable phosphoketolase (protein, listed as Bifidobacterium pseudolongum)
chain: MTNPVIGTPWQKLDRPVSEEAIEGMDKYWRVTNYMSIGQIYLRSNPLMKEPFTRDDVKHRLVGHWGTTPGLNFLLAHINRLIADHQQNTVFIMGPGHGGPAGTSQSYVDGTYTEYYPNITKDEAGLQKFFRQFSYPGGIPSHFAPETPGSIHEGGELGYALSHAYGAVMNNPSLFVPCIIGDGEAETGPLATGWQSNKLVNPRTDGIVLPILHLNGYKIANPTILARISDEELHDFFRGMGYHPYEFVAGFDNEDHMSIHRRFAELFETIFDEICDIKAAAQTDDMTRPFYPMLIFRTPKGWTCPKFIDGKKTEGSWRAHQVPLASARDTEEHFEVLKGWLESYKPEELFNADGSIKDDVTAFMPKGDLRIGANPNANGGVIREDLKLPELDQYEVTGVKEYGHGWGQVEAPRSLGAYCRDIIKNNPDSFRIFGPDETASNRLNATYEVTDKQWDNGYLSSLVDEHMAVTGQVTEQLSEHQCEGFLEAYLLTGRHGIWSSYESFVHVIDSMLNQHAKWLEATVREIPWRKPISSVNLLVSSHVWRQDHNGFSHQDPGVTSVLINKTFNNDHVTNIYFATDANMLLAISEKCFKSTNKINAIFAGKQPAPTWITLDEARAELEAGAAEWKWASNAENNDEVQVVLAAAGDVPTQEIMAASDALNKMGIKFKVVNVVDLLKLQSRENNDEALTDEEFTDLFTADKPVLFAYHSYAQDVRGLIYDRPNHDNFNVVGYKEQGSTTTPFDMVRVNDMDRYALQAAALKMIDADKYADKIDELNAFRQKAFQFAVDNGYDIPEFTDWVYPDVKVDETQMLSATAATAGDNE
modifications: Probable phosphoketolase
notes: protein expressed by Bifidobacterium pseudolongum subsp. globosum
Take B6: the “immune cross-reaction” value is recorded as “immune cross-react with anti-oxytocin antibodies”.

B7: 2,5-didehydrogluconate reductase (protein, listed as Lactobacillus camelliae)
chain: MAEISKMSDTYTLSNGVKIPIVGFGTWQTPDGDVAKHSVEVAIKDGYRHIDTAAMYRNEDSVGEGIKAGLAAAGLKRDDLFVTTKLNNNAHSFDLVQKAIDESLTKLGLDHVDLYLIHWPNPVSFRDSYPDSLKETWRGMEQVYKDGKARAIGISNFRQAHLDVIKADATVEPMVNQIFLNPSDLQPAVTKMNAENNILSEAYSPLGTGKLLGNEELAKVAAKYGKGVAQVLLRWSLQHGFLPLAKSVHDARIKENTELFDFTLSDEDMKTLDGMRGVAGLATDPDTTNF
modifications: 2,5-didehydrogluconate reductase
notes: as for B5
Consider B7, for which the “immune cross-reaction” value is reported as “immune cross-react with anti-oxytocin antibodies”.

B8: 2,3-bisphosphoglycerate-dependent phosphoglycerate mutase (protein, listed as Lactobacillus camelliae)
chain: MAKLVLIRHGQSEWNLSNQFTGWVDVDLSEKGTEEAKEAGRRIKKAGLEFDQAYTSVLTRAIKTLHYALEESDQLWIPETKTWRLNERHYGALQGQNKAEAAKKWGDEQVHIWRRSYDTLPPLLSADDEGSAAKDRRYANLDPRIIPGGENLKVTLERVIPFWEDHIAPDLLDGKNVIIAAHGNSLRALTKYIENISDEDIINLEMTTGEPVVYTFNDKLEVTDKVKLSK
modifications: 2,3-bisphosphoglycerate-dependent phosphoglycerate mutase
notes: as for B5
As to B8, the “immune cross-reaction” value is given as “immune cross-react with anti-oxytocin antibodies”.

B9: Enolase 1 (protein, listed as Lactobacillus gasseri)
chain: MLKSVIENVHALEIFDSRGNPTVEVFVTLSNGVVGKAEVPSGASTGENEAVELRDGGSRLGGKGVMNAVNNVNTEINDALKGLDPHDQPNIDATMIALDGTPNKGRLGANAILGVSMATACAAAKDNHQPLYRYLGGTDLEMPQTFHNVINGGEHADNGIDIQEFMITPVAKTSFRDGFEKIVNVYHTLKKVLEDMGYETGLGDEGGFAPNMKNSEEALKALHESIIKAGYKPGEDIAIACDCAASYFYNKEDGKYHLEGKVLTDEELADYYDKLLDEFPELISMEDPYDENDVEGMVKFTESHKDRIQIVLDDFICTNPKLLNKAIHEGAGNASLIKLNQIGTVTETLETIRLSRKNGYNTMISHRSGETGDTFIADFAVAVNGGQLKSGAPARSERVEKYNRLLEIEEELGKGERLAFFPDNVDLD
modifications: enolase1
notes: protein expressed by Lactobacillus gasseri
On to B9, for which the “immune cross-reaction” value is on record as “immune cross-react with anti-oxytocin antibodies”.

(Values after patent US20250352589A1, “OXYTOCIN-MIMETIC COMPOSITIONS AND USES THEREOF” (INSTITUT NATIONAL DE LA SANTÉ ET DE LA RECHERCHE MÉDICALE, priority 2021, published 2025).)
